Here are results for six molecules from patent US20250171562A1.

B1: NIgG4B1A2(G4S)3 (Fc fusion)
chain 1: QVQLQESGGGLVQTGGSLRLSCAVHGRTFSNTGMGWFRQAPGNERQFVAIISPSGTSTYYADSVKGRFTISRDPAKNTVYLQMNSLKMDDTAVYYCAASYGSNWSTLRHQRRNEYDAWGQGTQVAVSGGGGSGGGGSGGGGSGPPCPPCPAPEFLGGPSVFLFPPKPKDTLMISRTPEVTCVVVDVSQEDPEVQFNWYVDGVEVHNAKTKPREEQFNSTYRVVSVLTVLHQDWLNGKEYKCKVSNKGLPSSIEKTISKAKGQPREPQVYTLPPCQEEMTKNQVSLWCLVKGFYPSDIAVEWESNGQPENNYKTTPPVLDSDGSFFLYSRLTVDKSRWQEGNVFSCSVMHEALHNHYTQKSLSLSLGK
chain 2: EVQLLESGGGLVQPGGSLRLSCAASGFRFGNYDMAWVRQAPGKRYEWVSSIDTGGDITHYADSVKGRFTISRDNAKNTLYLQMNSLRPEDTAEYWCATDEEYALGPNEFDYYGQGTLVTVSGGGGSGGGGSGGGGSGPPCPPCPAPEFLGGPSVFLFPPKPKDTLMISRTPEVTCVVVDVSQEDPEVQFNWYVDGVEVHNAKTKPREEQFNSTYRVVSVLTVLHQDWLNGKEYKCKVSNKGLPSSIEKTISKAKGQPREPQVCTLPPSQEEMTKNQVSLSCAVKGFYPSDIAVEWESNGQPENNYKTTPPVLDSDGSFFLVSRLTVDKSRWQEGNVFSCSVMHEALHNHYTQKSLSLSLGK
B2: NIgG4B1A2(G4S)1 (Fc fusion)
chain 1: QVQLQESGGGLVQTGGSLRLSCAVHGRTFSNTGMGWFRQAPGNERQFVAIISPSGTSTYYADSVKGRFTISRDPAKNTVYLQMNSLKMDDTAVYYCAASYGSNWSTLRHQRRNEYDAWGQGTQVAVSGGGGSGPPCPPCPAPEFLGGPSVFLFPPKPKDTLMISRTPEVTCVVVDVSQEDPEVQFNWYVDGVEVHNAKTKPREEQFNSTYRVVSVLTVLHQDWLNGKEYKCKVSNKGLPSSIEKTISKAKGQPREPQVYTLPPCQEEMTKNQVSLWCLVKGFYPSDIAVEWESNGQPENNYKTTPPVLDSDGSFFLYSRLTVDKSRWQEGNVFSCSVMHEALHNHYTQKSLSLSLGK
chain 2: EVQLLESGGGLVQPGGSLRLSCAASGFRFGNYDMAWVRQAPGKRYEWVSSIDTGGDITHYADSVKGRFTISRDNAKNTLYLQMNSLRPEDTAEYWCATDEEYALGPNEFDYYGQGTLVTVSGGGGSGPPCPPCPAPEFLGGPSVFLFPPKPKDTLMISRTPEVTCVVVDVSQEDPEVQFNWYVDGVEVHNAKTKPREEQFNSTYRVVSVLTVLHQDWLNGKEYKCKVSNKGLPSSIEKTISKAKGQPREPQVCTLPPSQEEMTKNQVSLSCAVKGFYPSDIAVEWESNGQPENNYKTTPPVLDSDGSFFLVSRLTVDKSRWQEGNVFSCSVMHEALHNHYTQKSLSLSLGK
B3: NIgG4B3A1(G4S)2 (Fc fusion)
chain 1: DVQLQESGGGLVQAGGSLRLSCAASGFIFRLAGMSWVRQAPGKGFEWVSGITMDGSTTNYADSVKGRFTISRDNSKNRLYLQMNSLKPEDTAVYYCARGAKGGYNDPRGQGTQVTVSGGGGSGGGGSGPPCPPCPAPEFLGGPSVFLFPPKPKDTLMISRTPEVTCVVVDVSQEDPEVQFNWYVDGVEVHNAKTKPREEQFNSTYRVVSVLTVLHQDWLNGKEYKCKVSNKGLPSSIEKTISKAKGQPREPQVYTLPPCQEEMTKNQVSLWCLVKGFYPSDIAVEWESNGQPENNYKTTPPVLDSDGSFFLYSRLTVDKSRWQEGNVFSCSVMHEALHNHYTQKSLSLSLGK
chain 2: EVQLLESGGGLVQPGGSLRLSCAASGFTFGNYDMAWVRQAPGKRPEWVSSIDTGGDITHYADSVKGRFTISRDNAKNTLYLQMNSLRPEDTAVYWCATDEEYALGPNEFDYYGQGTLVTVSSGGGGSGGGGSGPPCPPCPAPEFLGGPSVFLFPPKPKDTLMISRTPEVTCVVVDVSQEDPEVQFNWYVDGVEVHNAKTKPREEQFNSTYRVVSVLTVLHQDWLNGKEYKCKVSNKGLPSSIEKTISKAKGQPREPQVCTLPPSQEEMTKNQVSLSCAVKGFYPSDIAVEWESNGQPENNYKTTPPVLDSDGSFFLVSRLTVDKSRWQEGNVFSCSVMHEALHNHYTQKSLSLSLGK
B4: NIgG4B1A2(RS) (Fc fusion)
chain 1: QVQLQESGGGLVQTGGSLRLSCAVHGRTFSNTGMGWFRQAPGNERQFVAIISPSGTSTYYADSVKGRFTISRDPAKNTVYLQMNSLKMDDTAVYYCAASYGSNWSTLRHQRRNEYDAWGQGTQVAVSRSGPPCPPCPAPEFLGGPSVFLFPPKPKDTLMISRTPEVTCVVVDVSQEDPEVQFNWYVDGVEVHNAKTKPREEQFNSTYRVVSVLTVLHQDWLNGKEYKCKVSNKGLPSSIEKTISKAKGQPREPQVYTLPPCQEEMTKNQVSLWCLVKGFYPSDIAVEWESNGQPENNYKTTPPVLDSDGSFFLYSRLTVDKSRWQEGNVFSCSVMHEALHNHYTQKSLSLSLGK
chain 2: EVQLLESGGGLVQPGGSLRLSCAASGFRFGNYDMAWVRQAPGKRYEWVSSIDTGGDITHYADSVKGRFTISRDNAKNTLYLQMNSLRPEDTAEYWCATDEEYALGPNEFDYYGQGTLVTVSRSGPPCPPCPAPEFLGGPSVFLFPPKPKDTLMISRTPEVTCVVVDVSQEDPEVQFNWYVDGVEVHNAKTKPREEQFNSTYRVVSVLTVLHQDWLNGKEYKCKVSNKGLPSSIEKTISKAKGQPREPQVCTLPPSQEEMTKNQVSLSCAVKGFYPSDIAVEWESNGQPENNYKTTPPVLDSDGSFFLVSRLTVDKSRWQEGNVFSCSVMHEALHNHYTQKSLSLSLGK
B5: NIgG4B3A1(G4S)3 (Fc fusion)
chain 1: DVQLQESGGGLVQAGGSLRLSCAASGFIFRLAGMSWVRQAPGKGFEWVSGITMDGSTTNYADSVKGRFTISRDNSKNRLYLQMNSLKPEDTAVYYCARGAKGGYNDPRGQGTQVTVSGGGGSGGGGSGGGGSGPPCPPCPAPEFLGGPSVFLFPPKPKDTLMISRTPEVTCVVVDVSQEDPEVQFNWYVDGVEVHNAKTKPREEQFNSTYRVVSVLTVLHQDWLNGKEYKCKVSNKGLPSSIEKTISKAKGQPREPQVYTLPPCQEEMTKNQVSLWCLVKGFYPSDIAVEWESNGQPENNYKTTPPVLDSDGSFFLYSRLTVDKSRWQEGNVFSCSVMHEALHNHYTQKSLSLSLGK
chain 2: EVQLLESGGGLVQPGGSLRLSCAASGFTFGNYDMAWVRQAPGKRPEWVSSIDTGGDITHYADSVKGRFTISRDNAKNTLYLQMNSLRPEDTAVYWCATDEEYALGPNEFDYYGQGTLVTVSSGGGGSGGGGSGGGGSGPPCPPCPAPEFLGGPSVFLFPPKPKDTLMISRTPEVTCVVVDVSQEDPEVQFNWYVDGVEVHNAKTKPREEQFNSTYRVVSVLTVLHQDWLNGKEYKCKVSNKGLPSSIEKTISKAKGQPREPQVCTLPPSQEEMTKNQVSLSCAVKGFYPSDIAVEWESNGQPENNYKTTPPVLDSDGSFFLVSRLTVDKSRWQEGNVFSCSVMHEALHNHYTQKSLSLSLGK
B6: NIgG4B1A2(G4S)2 (Fc fusion)
chain 1: QVQLQESGGGLVQTGGSLRLSCAVHGRTFSNTGMGWFRQAPGNERQFVAIISPSGTSTYYADSVKGRFTISRDPAKNTVYLQMNSLKMDDTAVYYCAASYGSNWSTLRHQRRNEYDAWGQGTQVAVSGGGGSGGGGSGPPCPPCPAPEFLGGPSVFLFPPKPKDTLMISRTPEVTCVVVDVSQEDPEVQFNWYVDGVEVHNAKTKPREEQFNSTYRVVSVLTVLHQDWLNGKEYKCKVSNKGLPSSIEKTISKAKGQPREPQVYTLPPCQEEMTKNQVSLWCLVKGFYPSDIAVEWESNGQPENNYKTTPPVLDSDGSFFLYSRLTVDKSRWQEGNVFSCSVMHEALHNHYTQKSLSLSLGK
chain 2: EVQLLESGGGLVQPGGSLRLSCAASGFRFGNYDMAWVRQAPGKRYEWVSSIDTGGDITHYADSVKGRFTISRDNAKNTLYLQMNSLRPEDTAEYWCATDEEYALGPNEFDYYGQGTLVTVSGGGGSGGGGSGPPCPPCPAPEFLGGPSVFLFPPKPKDTLMISRTPEVTCVVVDVSQEDPEVQFNWYVDGVEVHNAKTKPREEQFNSTYRVVSVLTVLHQDWLNGKEYKCKVSNKGLPSSIEKTISKAKGQPREPQVCTLPPSQEEMTKNQVSLSCAVKGFYPSDIAVEWESNGQPENNYKTTPPVLDSDGSFFLVSRLTVDKSRWQEGNVFSCSVMHEALHNHYTQKSLSLSLGK

The target of the assay is mixture of three Der p 2 specific recombinant human IgE clones H10, H12, P4E (human) (UniProt P01854). The assay can be described thus: RBL-SX38 IgE displacement, FACS.
mixture of three Der p 2 specific recombinant human IgE clones H10, H12, P4E (human), sequence (P01854 other isoform, or with tags, fused parts or gaps): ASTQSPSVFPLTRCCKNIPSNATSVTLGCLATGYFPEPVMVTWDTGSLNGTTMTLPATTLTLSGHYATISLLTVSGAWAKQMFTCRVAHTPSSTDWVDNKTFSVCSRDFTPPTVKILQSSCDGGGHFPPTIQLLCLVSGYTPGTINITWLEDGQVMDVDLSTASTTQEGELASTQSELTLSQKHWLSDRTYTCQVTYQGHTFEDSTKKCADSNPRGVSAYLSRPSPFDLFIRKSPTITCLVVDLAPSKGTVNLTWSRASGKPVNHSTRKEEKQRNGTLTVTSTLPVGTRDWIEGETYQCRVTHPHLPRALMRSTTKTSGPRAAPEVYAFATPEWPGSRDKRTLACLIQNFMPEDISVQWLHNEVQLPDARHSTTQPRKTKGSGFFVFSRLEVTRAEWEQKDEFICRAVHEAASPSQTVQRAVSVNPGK
Regarding B1, the concentration for a half-maximal effect (EC50) is 0.5 nM and the Max effect/effect 1 µM was 100%.
With B2, the EC50 was determined as 0.4 nM and the Max effect/effect 1 µM came to 100%.
Take B3: the Max effect/effect 1 µM was determined as 94%.
For the molecule B4, the EC50 came out at 0.6 nM and the Max effect/effect 1 µM turned out to be 99%.
Regarding B5, the Max effect/effect 1 µM came out at 93%.
B6: the EC50 worked out at 0.4 nM and the Max effect/effect 1 µM came out at 100%.

What is called EC50 is the concentration needed to bring the measured effect to its halfway point.
